Experimental data from patent US12410262B2, “Peptide conjugates of cytotoxins as therapeutics” (Cybrexa 2, Inc., priority 2019, dated 2025).

How the values were obtained:
HCT116 = test: cells; assay type: cell-based, human; conditions: 96 h
Method: Cells were plated in 96 well black walled-clear bottom plates (Griener), DLD-1 WT cells at 2500 cells per well, FaDu, and HeLa cells at 5000 cells per well, and HCT116 at 3000 cells per well, in growth media containing 10% FBS. Cells were allowed to adhere at room temperature for 60 minutes before returning to a 37 C, 5% CO2 incubator. After 24 hours, media was removed and replaced with fresh growth media containing various drug concentrations. Each drug concentration was added in triplicate. Non-drug treated controls contained growth media only. Cells were returned to the incubator. Ninety-six hours after addition of drug, cells were fixed with 4% paraformaldehyde for 20 minutes and stained with Hoechst at 1 ug/mL. The plates were imaged on a Cytation 5 auto imager (BioTek) and cells were counted using CellProfiler (http://cellprofiler.org). The percent cell growth delay was calculated and data plotted using GraphPad Prism

[1] = Glutathione cleavage study; assay type: in vitro ADME; conditions: Tris buffer with 10 mM glutathione, Glutathione Challenge (10 mM), 100 μM conjugate, Tris pH 7.5, 37° C.
Method: A 20 mM stock of conjugate was prepared in 100% DMSO. The stocks were subsequently diluted in 100 mM Tris, pH 7.5, to yield an intermediate dilution of 500 μM followed by an additional dilution of 1:5 in 100 mM Tris, pH 7.5 to give a final concentration of 100 μM of conjugate. 100 mM glutathione was prepared immediately prior to use in H2O and diluted 1:10 in challenge samples for a final glutathione challenge concentration of 10 mM. Samples were mixed by inversion and incubated at 37° C. for up to 24 hrs. […]
(§1) Samples were thawed and extracted as follows: 8 μL of 25% phosphoric acid followed by 117 μL of 100% acetonitrile/0.1% TFA were added to each sample, mixed and centrifuged at 13000×G for 10 minutes. The supernatant was pipetted into 0.2 mL HPLC vials and placed on a Perkin Elmer Flexar HPLC autosampler. The following table summarizes HPLC conditions:
Data was analyzed by calculating the percentage reduction of compound (area of retention time peak of […] conjugate/area of retention time peak of conjugate at time 0)×100.

Plasma stability studies = assay type: in vitro ADME; conditions: rat plasma, 100 μM conjugate, 37° C.
Method: A 20 mM stock of conjugate was prepared in 100% DMSO. The stocks were subsequently diluted in 100 mM Tris, pH 7.5 to yield an intermediate dilution of 500 μM and then diluted 1:5 directly into rat plasma to yield a final concentration of 100 μM of conjugate. Samples were mixed by inversion and incubated at 37° C. for up to 24 h. 50 μL samples were aliquoted into siliconized microfuge tubes at time 0, 4, and 24 h and immediately frozen at −80° C.
as §1, with “100% Acetonitrile/0.1%” for “100% acetonitrile/0.1%”, “TFA was” for “TFA were”
Data was analyzed by calculating the percentage reduction of compound (area of retention time peak of incubated conjugate/area of retention time peak of conjugate at time 0)×100.

SMILES	IC50 (HCT116) [nM]	remaining at 4 h, 100 µM [1] [%]	remaining at 24 h, 100 µM [1] [%]	remaining at 4 h, 100 µM (Plasma stability studies) [%]	remaining at 24 h, 100 µM (Plasma stability studies) [%]
CC[C@@]1(O)C(=O)OCc2c1cc1n(c2=O)Cc2c-1nc1cc(F)c(C)c3c1c2[C@@H](NC(=O)O[C@@H]1CCC[C@H]1SSC[C@H](NC(=O)[C@H](Cc1c[nH]c2ccccc12)NC(=O)[C@H](CC(C)C)NC(=O)[C@H](CC(C)C)NC(=O)[C@H](CC(=O)O)NC(=O)[C@H](CC(C)C)NC(=O)[C@H](CC(C)C)NC(=O)[C@H](CC(C)C)NC(=O)[C@@H](NC(=O)[C@H](CC(=O)O)NC(=O)[C@@H](NC(=O)[C@@H]1CCCN1C(=O)[C@H](Cc1ccccc1)NC(=O)[C@H](CC(C)C)NC(=O)[C@H](CC(C)C)NC(=O)[C@H](CC(=O)O)NC(=O)[C@H](CC(C)C)NC(=O)[C@H](Cc1ccc(O)cc1)NC(=O)[C@H](C)NC(=O)[C@H](CCCNC(=N)N)NC(=O)[C@H](Cc1c[nH]c2ccccc12)NC(=O)[C@@H]1CCCN1C(=O)[C@H](CC(N)=O)NC(=O)[C@H](CCC(N)=O)NC(=O)[C@H](CC(=O)O)NC(=O)[C@H](CC(=O)O)NC(=O)[C@H](C)N)[C@@H](C)O)[C@@H](C)O)C(=O)NCC(=O)O)CC3 [Compound 14]	4.7	14.9	6.5	106	106
CC[C@@]1(O)C(=O)OCc2c1cc1n(c2=O)Cc2c-1nc1cc(F)c(C)c3c1c2[C@@H](NC(=O)O[C@H]1CCc2ccccc2[C@@H]1SSC[C@H](NC(=O)[C@H](Cc1c[nH]c2ccccc12)NC(=O)[C@H](CC(C)C)NC(=O)[C@H](CC(C)C)NC(=O)[C@H](CC(=O)O)NC(=O)[C@H](CC(C)C)NC(=O)[C@H](CC(C)C)NC(=O)[C@H](CC(C)C)NC(=O)[C@@H](NC(=O)[C@H](CC(=O)O)NC(=O)[C@@H](NC(=O)[C@@H]1CCCN1C(=O)[C@H](Cc1ccccc1)NC(=O)[C@H](CC(C)C)NC(=O)[C@H](CC(C)C)NC(=O)[C@H](CC(=O)O)NC(=O)[C@H](CC(C)C)NC(=O)[C@H](Cc1ccc(O)cc1)NC(=O)[C@H](C)NC(=O)[C@H](CCCNC(=N)N)NC(=O)[C@H](Cc1c[nH]c2ccccc12)NC(=O)[C@@H]1CCCN1C(=O)[C@H](CC(N)=O)NC(=O)[C@H](CCC(N)=O)NC(=O)[C@H](CC(=O)O)NC(=O)[C@H](CC(=O)O)NC(=O)[C@H](C)N)[C@@H](C)O)[C@@H](C)O)C(=O)NCC(=O)O)CC3 [Compound 24]	3.4	20.8	4.2	87	87
CC[C@@]1(O)C(=O)OCc2c1cc1n(c2=O)Cc2c-1nc1cc(F)c(C)c3c1c2[C@@H](NC(=O)O[C@H]1COC[C@@H]1SSC[C@H](NC(=O)[C@H](Cc1c[nH]c2ccccc12)NC(=O)[C@H](CC(C)C)NC(=O)[C@H](CC(C)C)NC(=O)[C@H](CC(=O)O)NC(=O)[C@H](CC(C)C)NC(=O)[C@H](CC(C)C)NC(=O)[C@H](CC(C)C)NC(=O)[C@@H](NC(=O)[C@H](CC(=O)O)NC(=O)[C@@H](NC(=O)[C@@H]1CCCN1C(=O)[C@H](Cc1ccccc1)NC(=O)[C@H](CC(C)C)NC(=O)[C@H](CC(C)C)NC(=O)[C@H](CC(=O)O)NC(=O)[C@H](CC(C)C)NC(=O)[C@H](Cc1ccc(O)cc1)NC(=O)[C@H](C)NC(=O)[C@H](CCCNC(=N)N)NC(=O)[C@H](Cc1c[nH]c2ccccc12)NC(=O)[C@@H]1CCCN1C(=O)[C@H](CC(N)=O)NC(=O)[C@H](CCC(N)=O)NC(=O)[C@H](CC(=O)O)NC(=O)[C@H](CC(=O)O)NC(=O)[C@H](C)N)[C@@H](C)O)[C@@H](C)O)C(=O)NCC(=O)O)CC3 [Compound 17]	0.7	3.4	1.7	107	105
CC[C@@]1(O)C(=O)OCc2c1cc1n(c2=O)Cc2c-1nc1cc(F)c(C)c3c1c2[C@@H](NC(=O)O[C@H]1CCCCC[C@@H]1SSC[C@H](NC(=O)[C@H](Cc1c[nH]c2ccccc12)NC(=O)[C@H](CC(C)C)NC(=O)[C@H](CC(C)C)NC(=O)[C@H](CC(=O)O)NC(=O)[C@H](CC(C)C)NC(=O)[C@H](CC(C)C)NC(=O)[C@H](CC(C)C)NC(=O)[C@@H](NC(=O)[C@H](CC(=O)O)NC(=O)[C@@H](NC(=O)[C@@H]1CCCN1C(=O)[C@H](Cc1ccccc1)NC(=O)[C@H](CC(C)C)NC(=O)[C@H](CC(C)C)NC(=O)[C@H](CC(=O)O)NC(=O)[C@H](CC(C)C)NC(=O)[C@H](Cc1ccc(O)cc1)NC(=O)[C@H](C)NC(=O)[C@H](CCCNC(=N)N)NC(=O)[C@H](Cc1c[nH]c2ccccc12)NC(=O)[C@@H]1CCCN1C(=O)[C@H](CC(N)=O)NC(=O)[C@H](CCC(N)=O)NC(=O)[C@H](CC(=O)O)NC(=O)[C@H](CC(=O)O)NC(=O)[C@H](C)N)[C@@H](C)O)[C@@H](C)O)C(=O)NCC(=O)O)CC3 [Compound 23]	11.9	61.4	13.2	92	92
CC[C@@]1(O)C(=O)OCc2c1cc1n(c2=O)Cc2c-1nc1cc(F)c(C)c3c1c2[C@@H](NC(=O)OC[C@@H](SSC[C@H](NC(=O)[C@H](Cc1c[nH]c2ccccc12)NC(=O)[C@H](CC(C)C)NC(=O)[C@H](CC(C)C)NC(=O)[C@H](CC(=O)O)NC(=O)[C@H](CC(C)C)NC(=O)[C@H](CC(C)C)NC(=O)[C@H](CC(C)C)NC(=O)[C@@H](NC(=O)[C@H](CC(=O)O)NC(=O)[C@@H](NC(=O)[C@@H]1CCCN1C(=O)[C@H](Cc1ccccc1)NC(=O)[C@H](CC(C)C)NC(=O)[C@H](CC(C)C)NC(=O)[C@H](CC(=O)O)NC(=O)[C@H](CC(C)C)NC(=O)[C@H](Cc1ccc(O)cc1)NC(=O)[C@H](C)NC(=O)[C@H](CCCNC(=N)N)NC(=O)[C@H](Cc1c[nH]c2ccccc12)NC(=O)[C@@H]1CCCN1C(=O)[C@H](CC(N)=O)NC(=O)[C@H](CCC(N)=O)NC(=O)[C@H](CC(=O)O)NC(=O)[C@H](CC(=O)O)NC(=O)[C@H](C)N)[C@@H](C)O)[C@@H](C)O)C(=O)NCC(=O)O)C(C)C)CC3 [Compound 27]	0.7	18	0	117	109
